Here are results for 6 substances from PMC3479090.

The target in experiment [1] is human CD1d construct with C-terminal 3C protease site and 6X-Histidine tag, loaded with α-galactosylceramide (form used for SPR), P15813;P61769. Nature of the experiment: SPR. Particulars: read off a plot; for koff: parent: est. 0.34; for kon: parent: est. 1.3e4.
For experiment [2], the target named is Vα24+ NKT TCR clone J24L.17 (iNKT TCR, Vα24-Jα18/Vβ11) (human). Put plainly: SPR; same curves as the kinetic analysis plus 9 µM and 27 µM CD1d–αGalCer; TCR on the chip; equilibrium analysis.
Experiment [3] has the same target. Put plainly: SPR; BIAcore 3000; 300 RU of TCR captured on a Ni-NTA sensor chip, surface blocked with recombinant IgFc; CD1d–αGalCer injected (0, 0.037, 0.111, 0.333, 1, 3 µM for kinetics; series up to 27 µM) at 30 µl/min in 10 mM Hepes pH 7.4, 150 mM NaCl, 0.005% Tween-20; kinetic analysis, Langmuir 1:1 model.

For “Vα24− TCR J24.N22 (Vα3.1-Jα18/Vβ11), soluble heterodimer with zippers and His tags N29A”, in experiment [1], the koff turned out to be 0.89 s⁻¹, the kon amounted to 3700 M⁻¹ s⁻¹ and the Kd is 24000 nM.
In the same order, the values of “Vα24− TCR J24.N22 (Vα3.1-Jα18/Vβ11), soluble heterodimer with zippers and His tags S50A” are 0.38 s⁻¹, 23000 M⁻¹ s⁻¹ and 1700 nM.
In the same order, the values of “Vα24− TCR J24.N22 (Vα3.1-Jα18/Vβ11), soluble heterodimer with zippers and His tags S97A” are 0.52 s⁻¹, 30000 M⁻¹ s⁻¹ and 1700 nM.
As to “Vα24− TCR J24.N22 (Vα3.1-Jα18/Vβ11), soluble heterodimer with zippers and His tags N51A”, in experiment [1], the kon was 12000 M⁻¹ s⁻¹ and the Kd was determined as 3400 nM.
In the case of “human CD1d construct with C-terminal 3C protease site and 6X-Histidine tag, loaded with α-galactosylceramide (form used for SPR) (from UniProt P15813 20-335; P61769 21-119) (complex)”, the Kd in experiment [2] was 1900 nM. In addition, in experiment [3], the Kd turned out to be 2100 nM, the koff worked out at 0.414 s⁻¹ and the kon is 194000 M⁻¹ s⁻¹.
Consider “Vα24− TCR J24.N22 (Vα3.1-Jα18/Vβ11), soluble heterodimer with zippers and His tags S27A”, for which, in experiment [1], the koff amounted to 0.51 s⁻¹, the kon is 12000 M⁻¹ s⁻¹ and the Kd turned out to be 4200 nM.
